# Experimental data as given in IntAct's records for PubMed 17064696.
# B1: Sphingosine kinase 1 (Homo sapiens), Q9NYA1 (parent)
# chain: MDPAGGPRGVLPRPCRVLVLLNPRGGKGKALQLFRSHVQPLLAEAEISFTLMLTERRNHARELVRSEELGRWDALVVMSGDGLMHEVVNGLMERPDWETAIQKPLCSLPAGSGNALAASLNHYAGYEQVTNEDLLTNCTLLLCRRLLSPMNLLSLHTASGLRLFSVLSLAWGFIADVDLESEKYRRLGEMRFTLGTFLRLAALRTYRGRLAYLPVGRVGSKTPASPVVVQQGPVDAHLVPLEEPVPSHWTVVPDEDFVLVLALLHSHLGSEMFAAPMGRCAAGVMHLFYVRAGVSRAMLLRLFLAMEKGRHMEYECPYLVYVPVVAFRLEPKDGKGVFAVDGELMVSEAVQGQVHPNYFWMVSGCVEPPPSWKPQQMPPPEEPL
# Variants of: B1
# Details: with catb_human CTSB
row,effect of a mutation on the interaction,Variant
1,decreasing interaction,N121E

# Variants of: B1
# Details: with catb_human CTSB
# Remark: another data set of the same source
row,effect of a mutation on the interaction,Variant
1,decreasing interaction,Y123A

# Variants of: B1
# Details: with catb_human CTSB
# Remark: another data set of the same source
row,effect of a mutation on the interaction,Variant
1,decreasing interaction,H122Y
